The values below come from patent US20240052042A1 (Novartis, published 2024).

By Kd is commonly meant a measure of binding affinity in units of concentration. High values mean a looser complex, low ones a tighter complex.

Assay [1] has as its target T1, human Natriuretic Peptide Receptor 1 (hNPR1) (human, UniProt P16066 33-473, limits assumed).
T1 construct: pannings used NPR1-hFc; also called NPR1-hFc
T1 sequence: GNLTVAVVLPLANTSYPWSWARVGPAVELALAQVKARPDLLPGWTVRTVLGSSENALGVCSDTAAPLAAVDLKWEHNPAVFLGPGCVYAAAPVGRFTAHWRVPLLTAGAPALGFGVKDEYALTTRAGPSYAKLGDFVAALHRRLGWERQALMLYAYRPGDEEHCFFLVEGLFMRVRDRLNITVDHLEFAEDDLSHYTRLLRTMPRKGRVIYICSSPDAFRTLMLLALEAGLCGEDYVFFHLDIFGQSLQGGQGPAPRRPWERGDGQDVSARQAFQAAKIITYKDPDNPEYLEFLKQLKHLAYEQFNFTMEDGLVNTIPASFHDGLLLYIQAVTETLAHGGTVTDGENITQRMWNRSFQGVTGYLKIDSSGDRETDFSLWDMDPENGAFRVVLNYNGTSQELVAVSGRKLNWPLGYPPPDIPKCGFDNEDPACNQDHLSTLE
Briefly: SET, FabCys.

The target of assay [2] is T2, hNPR1-ANP complex (human, UniProt P01160 124-151, limits assumed).
T2 construct: hNPR1 antigen in the presence of ANP; also called hNPR1 + 100 nM ANP
T2 sequence: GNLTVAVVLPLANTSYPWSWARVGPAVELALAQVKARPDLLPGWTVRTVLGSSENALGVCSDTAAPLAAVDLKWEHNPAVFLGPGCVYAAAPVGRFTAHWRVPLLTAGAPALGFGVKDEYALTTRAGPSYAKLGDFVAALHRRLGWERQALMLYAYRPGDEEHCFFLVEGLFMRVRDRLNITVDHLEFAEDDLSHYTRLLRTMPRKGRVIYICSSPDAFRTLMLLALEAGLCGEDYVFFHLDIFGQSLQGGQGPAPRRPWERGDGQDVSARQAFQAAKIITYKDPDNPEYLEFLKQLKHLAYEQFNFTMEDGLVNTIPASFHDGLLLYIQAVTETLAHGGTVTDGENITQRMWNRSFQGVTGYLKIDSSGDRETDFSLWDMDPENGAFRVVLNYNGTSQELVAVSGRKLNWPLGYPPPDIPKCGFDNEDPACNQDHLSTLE
T2 sequence (peptide): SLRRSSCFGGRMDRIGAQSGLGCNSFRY
The assay is described as follows: SET, FabCys.

The target of assay [3] is T1, human Natriuretic Peptide Receptor 1 …. Briefly: Octet, FabCys. A general note: BLI is a label-free optical method that tracks binding on a fibre tip over time.
In assay [4] the target is T2, hNPR1-ANP complex. The assay is described as follows: Octet, FabCys.
Another assay concerns the target T3, rat NPR1 (rNPR1) (rat, UniProt P18910 29-469, limits assumed).
T3 construct: Soluble antigen
T3 sequence: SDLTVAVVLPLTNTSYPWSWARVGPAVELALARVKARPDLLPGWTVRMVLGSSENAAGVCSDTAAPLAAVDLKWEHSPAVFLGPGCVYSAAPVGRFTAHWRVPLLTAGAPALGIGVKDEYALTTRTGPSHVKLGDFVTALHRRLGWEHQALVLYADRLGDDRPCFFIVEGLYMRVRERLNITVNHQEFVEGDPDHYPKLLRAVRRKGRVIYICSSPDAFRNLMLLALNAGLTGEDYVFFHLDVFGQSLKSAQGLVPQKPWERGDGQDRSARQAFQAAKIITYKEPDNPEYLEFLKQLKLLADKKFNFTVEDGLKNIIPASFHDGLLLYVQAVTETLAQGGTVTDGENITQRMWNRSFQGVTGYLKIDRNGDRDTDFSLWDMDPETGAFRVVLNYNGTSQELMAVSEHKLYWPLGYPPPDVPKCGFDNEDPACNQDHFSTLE
The assay is described as follows: SET, FabCys.

In the next assay the target is T4, rNPR1-ANP complex (rat, UniProt P01160 124-151 (human entry), limits assumed).
T4 construct: rNPR1 antigen in the presence of ANP; also called rNPR1 + 100 nM ANP
T4 sequence: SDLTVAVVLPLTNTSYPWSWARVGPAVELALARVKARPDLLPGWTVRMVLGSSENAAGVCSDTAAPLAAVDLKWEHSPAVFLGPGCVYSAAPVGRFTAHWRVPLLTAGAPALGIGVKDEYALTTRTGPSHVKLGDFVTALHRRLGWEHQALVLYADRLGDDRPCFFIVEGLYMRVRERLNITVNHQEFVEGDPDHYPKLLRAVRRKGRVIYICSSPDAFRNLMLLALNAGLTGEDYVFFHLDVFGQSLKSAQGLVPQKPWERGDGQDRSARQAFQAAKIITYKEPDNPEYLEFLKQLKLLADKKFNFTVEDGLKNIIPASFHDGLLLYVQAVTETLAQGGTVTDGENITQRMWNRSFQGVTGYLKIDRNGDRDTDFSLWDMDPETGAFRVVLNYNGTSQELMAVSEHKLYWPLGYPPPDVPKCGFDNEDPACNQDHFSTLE
T4 sequence (peptide): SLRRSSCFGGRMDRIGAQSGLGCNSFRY
Briefly: SET, FabCys.

B1: ZZ15 (FabCys format) (Fab, V domains shown)
VH: EVQLLESGGGLVQPGGSLRLSCAASGFTFASYAITWVRQAPGKGLEWVSTISGSGVYTYYAESVKGRFTISRDNSKNTLYLQMNSLRAEDTAVYYCARPYLGDRRSYGFDHWGQGTLVTVSS
VL: QSALTQPASVSGSPGQSITISCTGTSSDVGSYNLVSWYQQHPGKAPKLMIYEGSKRPSGVSNRFSGSKSGNTASLTISGLQAEDEADYYCSSYGFHIVVVVFGGGTKLTVL
notes: Monovalent FabCys
Take B1: the Kd in assay [1] was 0.053 nM; with hNPR1-ANP complex [2] it was 0.074 nM; in assay [3], 0.26 nM; with hNPR1-ANP complex [4] it was 0.19 nM.

B2: ZZ16 (FabCys format) (Fab, V domains shown)
VH: EVQLLESGGGLVQPGGSLRLSCAASGFTFGTYAMTWVRQAPGKGLEWVSSISASGYYANYAGSVKGRFTISRDNSKNTLYLQMNSLRAEDTAVYYCARPYLGDRRSYGFDHWGQGTLVTVSS
VL: QSALTQPASVSGSPGQSITISCTGTSSDVGSYNLVSWYQQHPGKAPKLMIYEGSKRPSGVSNRFSGSKSGNTASLTISGLQAEDEADYYCSSYGFHIVVVVFGGGTKLTVL
notes: Monovalent FabCys
Consider B2, for which the Kd in assay [1] was 0.04 nM; with hNPR1-ANP complex [2] it was 0.034 nM; in the assay with rat NPR1 (rNPR1) it was 62 nM; with rNPR1-ANP complex, 51 nM; in assay [3], 0.14 nM; with hNPR1-ANP complex [4], 0.11 nM.
